According to PMC7971329 (Oncoimmunology, 2021):

Molecular target: human interleukin-2 (human, UniProt P60568)
Test: SEC

Chain of human interleukin-2 (P60568 21-153): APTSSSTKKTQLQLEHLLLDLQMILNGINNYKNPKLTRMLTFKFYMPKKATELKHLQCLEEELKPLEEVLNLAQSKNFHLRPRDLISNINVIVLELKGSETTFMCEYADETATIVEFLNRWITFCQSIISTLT

B1: TCB2-Fab (Fab, V domains shown)
VH: EVQLQQSGAELARPGASVKLSCKASGYTFTTYWIQWVKQRPGQGLEWIGAIYPGDGDTRYIQNFKGKATLTADKSSSTAYMQLSSLASEDSAVYYCARSLATRGFYAMDYWGQGTSVTVSS
VL: DIVMTQSPASLSMAIGEKVTIRCITSTDIDDDMNWYQQKPGEPPKLLISEGNTLRPGVPSRFSSSGYGTDFVFTIENMLSEDVADYYCLQSDNLPYTFGGGTKLEIK
binding result: binds
